Laboratory results reported in PMC8505397, “Development of peptides targeting receptor binding site of the envelope glycoprotein to contain the West Nile virus infection” (Scientific Reports, 2021).
Positions of bridges follow the written chain, without caps; N, C: chain ends. No end group written: not given here.

Tests used:
[1] = target: proteins of hBMECs (human (endogenous in hBMECs)); test: ELISA; proteins of hBMECs coated into microtiter wells, rDIII (2 µg, printed as 0.15 nM) added without pre-blocking; negative control (no rDIII) subtracted
hBMECs = test: Peptide cytotoxicity assay (XTT); assay type: cell-based, human; conditions: positive control; hBMECs; untreated = 100% viability
Procedure: The toxicity of peptides was determined by the XTT test (AppliChem, USA) as per the manufacturer’s instructions. Details are presented in Supplementary Method S15. […]
Cytotoxicity assay. hBMECs were cultured in 96-well TPP tissue culture plates (Sigma) in supplemented EBM-2 medium (Lonza) to obtain ~70% confluency (as described in Supplementary Method S1). The peptides in concentrations of 1 µM, 2 µM, 4 µM, and 6 µM (diluted in 100 µL of EBM-2 medium supplemented only with 10% FBS, 10 mM HEPES and 1 ng/mL bFGF; Sigma) were added and incubated for 24 h at 37°C in a humid atmosphere of 5% CO2. Untreated cells served as a negative control (100% viability). For positive control, cells treated with 0.01% Triton X-100 were used. After incubation, the mixture of XTT and activation reagent (5:0.1 [v/v], 50 µL each well) was added to each well and incubated for an additional 3 h at 37°C in a humid atmosphere of 5% CO2. The absorbance was measured at 450 nm. The assay was performed in replicates. The viability (%) of endothelial cells was calculated using the formula: Cell viability (%) = [(A - xA ) × 100] / (xA -

[2] = target: T1, 7-mer cyclic peptide CP2 (ACX7CGGGS form of CTKTDVHFC) (disulfide 2-10 (inferred)); test: ELISA; peptides covalently coated through their C-terminus in Nunc CovaLink NH plates (EDC plus sulfo-NHS), blocked with 0.5% BSA in PBS, incubated with rDIII, detected with HisProbe-HRP; negative control (no rDIII) subtracted; conditions: both partners purified
T1 construct: additional alanine at the N-terminus (ACX7CGGGS); peptide of phage clone CC2; C-terminal linker; source: E. coli SHuffle T5, purified; N-terminal tag cleaved with enterokinase and removed on nickel beads; not shown: His6, N-terminal, cleaved; 28 aa tag, N-terminal, cleaved
T1 peptide: ACTKTDVHFCGGGS

[3] = target: T2, 7-mer cyclic peptide CP4 (ACX7CGGGS form of CIHSSTRAC) (disulfide 2-10 (inferred)); test: as above; conditions: both partners purified
T2 construct: additional alanine at the N-terminus (ACX7CGGGS); peptide of phage clone CC4; C-terminal linker; source: E. coli SHuffle T5, purified; N-terminal tag cleaved with enterokinase and removed on nickel beads; not shown: His6, N-terminal, cleaved; 28 aa tag, N-terminal, cleaved
T2 peptide: ACIHSSTRACGGGS

[4] = target: T3, 7-mer cyclic peptide CP6 (ACX7CGGGS form of CMQTQRAHC) (disulfide 2-10 (inferred)); test: as above; conditions: both partners purified
T3 construct: additional alanine at the N-terminus (ACX7CGGGS); peptide of phage clone CC6; C-terminal linker; source: E. coli SHuffle T5, purified; N-terminal tag cleaved with enterokinase and removed on nickel beads; not shown: His6, N-terminal, cleaved; 28 aa tag, N-terminal, cleaved
T3 peptide: ACMQTQRAHCGGGS

[5] = target: T4, 7-mer cyclic peptide CP7 (ACX7CGGGS form of CTNANHYFC) (disulfide 2-10 (inferred)); test: as above; conditions: both partners purified
T4 construct: additional alanine at the N-terminus (ACX7CGGGS); peptide of phage clone CC7; C-terminal linker; source: E. coli SHuffle T5, purified; N-terminal tag cleaved with enterokinase and removed on nickel beads; not shown: His6, N-terminal, cleaved; 28 aa tag, N-terminal, cleaved
T4 peptide: ACTNANHYFCGGGS

[6] = target: T5, 7-mer cyclic peptide CP12 (ACX7CGGGS form of CTYENHRTC) (disulfide 2-10 (inferred)); test: as above; conditions: both partners purified
T5 construct: additional alanine at the N-terminus (ACX7CGGGS); peptide of phage clone CC12; C-terminal linker; source: E. coli SHuffle T5, purified; N-terminal tag cleaved with enterokinase and removed on nickel beads; not shown: His6, N-terminal, cleaved; 28 aa tag, N-terminal, cleaved
T5 peptide: ACTYENHRTCGGGS

[7] = target: T6, 7-mer cyclic peptide CP15 (ACX7CGGGS form of CDPRHSKFC) (disulfide 2-10 (inferred)); test: as above; conditions: both partners purified
T6 construct: additional alanine at the N-terminus (ACX7CGGGS); peptide of phage clone CC15; C-terminal linker; source: E. coli SHuffle T5, purified; N-terminal tag cleaved with enterokinase and removed on nickel beads; not shown: His6, N-terminal, cleaved; 28 aa tag, N-terminal, cleaved
T6 peptide: ACDPRHSKFCGGGS

[8] = target: T7, 7-mer cyclic peptide CP16 (ACX7CGGGS form of CLAQSHPLC) (disulfide 2-10 (inferred)); test: as above; conditions: both partners purified
T7 construct: additional alanine at the N-terminus (ACX7CGGGS); peptide of phage clone CC16; C-terminal linker; also called C16; source: E. coli SHuffle T5, purified; N-terminal tag cleaved with enterokinase and removed on nickel beads; not shown: His6, N-terminal, cleaved; 28 aa tag, N-terminal, cleaved
T7 peptide: ACLAQSHPLCGGGS

[9] = target: T8, 12-mer linear peptide LP3 (X12GGGS form of SGVYKVAYDWQH); test: as above; conditions: both partners purified
T8 construct: peptide of phage clone LC3; C-terminal linker; source: E. coli SHuffle T5, purified; N-terminal tag cleaved with enterokinase and removed on nickel beads; not shown: His6, N-terminal, cleaved; 28 aa tag, N-terminal, cleaved
T8 peptide: SGVYKVAYDWQHGGGS

“recombinant domain III (DIII) of the envelope (E) glycoprotein of West Nile virus (domain or fragment)” was tested, and the A450 [1] was 1.06.

For Triton X-100 [reference compound], the “cell viability (XTT)” value (hBMECs) was under 2.8%.

B1: recombinant domain III (DIII) of the envelope (E) glycoprotein of West Nile virus (domain or fragment)
chain: GTTYGVCSKAFKFLGTPADTGHGTVVLELQYTGTDGPCKVPISSVASLNDLTPVGRLVTVNPFVSVATANAKVLIELEPPFGDSYIVVGRGEQQINHHWHK
B1 gave an A450 [2] of over 1.9, an A450 [3] of over 1.9 and an A450 [4] of over 1.9. For the same molecule, the A450 [5] was over 1.9, the A450 [6] was over 1.9 and the A450 [7] was over 1.9. The A450 [8] was over 1.9 and the A450 [9] was 2.56.
